Measurements taken from patent US20210024596A1.

How the values were obtained:
histone H4 (human) = histone H4 (human) (UniProt P62805); assay: SPR kinetic assay, ligand H4 captured on the chip, analyte prothrombin fragment 1 at 1.0-6.0 µM
histone H3 (human) = histone H3 (human) (UniProt P68431); assay: SPR kinetic assay, ligand H3 captured on the chip, analyte prothrombin fragment 1 at 1.0-6.0 µM

- Kd (histone H4 (human)): 896 nM
- Kd (histone H3 (human)): 2350 nM
Substance: recombinant human prothrombin fragment 1 (from UniProt P00734 44-198)
